Measured values as given in US20200392528A1, “IMPROVED PLANT EPSP SYNTHASES AND METHODS OF USE” (PIONEER HI-BRED INTERNATIONAL, INC., priority 2017, published 2020).
Residue numbers refer to the chain shown, from its start. Names may count otherwise. Like-named read-outs stand apart in the source and are kept apart here.

Legend:
[1] = system: soybean EPSPS; assay: kcat gly: enzyme turnover under application conditions, soybean variants; format: biochemical; conditions: for kcat gly: soybean variants
Procedure: (§1) A more straight-forward, accurate and meaningful parameter is one in which one rate measurement is performed under presumed in vivo conditions, if known. To establish a set of conditions that mimic those under which the mutated enzyme needs to perform, the concentrations of PEP and S3P were set low (30 uM, subject to the sensitivity of assay conditions) to approach the presumed intracellular concentrations (˜15 uM, the approximate values of KM for both PEP and S3P). Glyphosate is included at 1 mM. The pH is set at 7.0 and ionic strength at 100 mM KCl, also to mimic known in vivo conditions. Ethylene glycol is present at 5% (v/v) to approximate the dielectric constant of intracellular fluid. The parameter is termed “enzyme turnover under application conditions”, which is herein shortened to “kcat gly”. The conventional formatting of the expression “kcat” is not used, to avoid this term being characterized as a standard kinetic constant.
EPSPS activity was determined by quantifying the phosphate generated from the EPSPS reaction. Release of inorganic phosphate was coupled to its reaction with 2-amino-6-mercapto-7-methylpurine ribonucleoside (MESG), catalyzed by purine nucleoside phosphorylase, according to previously described protocols. To determine the kcat gly, enzyme preparations were normalized to 0.1 mg/ml and four- to six-microliter aliquots of normalized enzyme were added to the wells of a low UV-absorbing 96-well assay plate (Greiner UV-Star). Reactions were started with the addition of 2×147 μl of reaction mixture containing 25 mM Hepes, pH 7.0, 100 mM KCl, 5% ethylene glycol, 30 μM each of PEP and S3P, 0.15 mM MESG, 1.5 U/ml purine nucleoside phosphorylase (Sigma N8264) and 1 mM glyphosate. Absorbance was monitored at 4 sec intervals for 50 sec with a Spectramax plate reader (Molecular Devices). […] Division by the enzyme concentration (0.04 to 0.1 uM, depending on activity) yields “kcat gly” in units of min^−1. […]
A library was constructed and screened as above. […] The library was constructed, screened and evaluated by the methods described in Examples 1 and 2.

[2] = system: maize EPSPS; assay: substrate saturation kinetic analysis (kcat, KM PEP, KI glyphosate); format: biochemical
Procedure: (§2) EPSPS activity was determined by quantifying the phosphate generated from the EPSPS reaction. Release of inorganic phosphate was coupled to its reaction with 2-amino-6-mercapto-7-methylpurine ribonucleoside (MESG), catalyzed by purine nucleoside phosphorylase, according to previously described protocols. To determine the kcat gly, enzyme preparations were normalized to 0.1 mg/ml and four- to six-microliter aliquots of normalized enzyme were added to the wells of a low UV-absorbing 96-well assay plate (Greiner UV-Star). Reactions were started with the addition of 2×147 μl of reaction mixture containing 25 mM Hepes, pH 7.0, 100 mM KCl, 5% ethylene glycol, 30 μM each of PEP and S3P, 0.15 mM MESG, 1.5 U/ml purine nucleoside phosphorylase (Sigma N8264) and 1 mM glyphosate. Absorbance was monitored at 4 sec intervals for 50 sec with a Spectramax plate reader (Molecular Devices). […] Division by the enzyme concentration (0.04 to 0.1 uM, depending on activity) yields “kcat gly” in units of min^−1.
(§3) Approximately 30 substitutions were designed into each library. Assuming an average incorporation rate of six substitutions per variant, the theoretical size of such libraries is ˜7×10^5. Libraries were screened using methods described previously and the enhanced method described in Example 2. The number of colony-forming units plated and screened was in the range of 50 to 100% of the theoretical size. Up to 200 colonies per library were picked for evaluation of the expressed variant. Proteins were purified as described previously in PCT/US2016/054399, incorporated herein by reference. Protein concentration was determined by measuring optical density at 280 nm. The extinction coefficient of native maize EPSPS (0.676 OD/mg/ml) was calculated by vNTI and used to convert OD280 to mg/ml. Kinetic parameters were determined as described in Example 1.
Combinatorial shuffling, maize native EPSPS—The mutations discovered were used to construct a combinatorial library designed to explore combinations of the desensitizing mutations in novel sequence contexts provided by the newly identified neutral mutations. Note that the amino acid position numbering in this Example 10 refers to the relative position of native maize EPSPS without the N-terminal Met. Therefore, G101A in this Example would be G102A in reference to SEQ ID NO: 1, wherein the maize EPSPS sequence has a Met added at the N-terminal. The diversity used was the same with the addition of G101A, T102 (IALGV) and P106(WA). In all, 43 substitutions at 29 positions were selected. The library was synthesized entirely from oligonucleotides, using the known technique of synthetic shuffling and was termed NatFS (Native, fully synthetic). The vector DNA of the library was transformed into the BL21(DE3) Tuner-AroA knockout strain and the cells were plated onto M9 medium containing either 30 mM glyphosate and 30 μM of the lac operon inducer isopropyl β-D-1-thiogalactopyranoside (IPTG) or 50 mM glyphosate and no IPTG. The 184 colonies that grew on either plate were picked and subjected to a second tier of screening in which EPSPS proteins were purified and activity measured at high (200 μM) and low (50 μM) PEP and S3P, with or without 10 μM glyphosate. Selected variants were subjected to substrate saturation kinetic analysis.

[3] = system: maize EPSPS; assay: kcat gly / kgly: enzyme turnover under application conditions (30 μM PEP and S3P, 1 mM glyphosate), phosphate release coupled to MESG; format: biochemical
Procedure: as §1, §2, §3
A customized parameter for predicting performance in the treated plant that would be a more accurate representation than kcat/Km*Ki. […] However, kcat/Km*Ki may be inadequate for predicting the reaction velocity under the conditions of the application (plants sprayed with glyphosate) because it may neglect concentrations of substrate and inhibitor, factors that are not intrinsic to the enzyme, but on which the reaction rate depends. Therefore, libraries derived from C1 on in FIG. 2 were evaluated with a single rate measurement designed to take all factors in the rate equation for competitive inhibition into account. […] Glyphosate was included at 1 mM, a concentration attainable in tissues, especially meristems, receiving metabolite flow from treated leaves. The pH (7.0), ionic strength (100 mM KCl) and co-solvent concentration (5% ethylene glycol) were also intended to mimic in vivo conditions. The unit for the parameter is reaction rate (μM·min^−1) per enzyme concentration (μM), or min^−1, describing the enzyme turnover under application conditions, which we abbreviate as “kgly”. […]

[4] = system: rice EPSPS; assay: kcat gly: enzyme turnover under application conditions, rice orthologs; format: biochemical, rice (Oryza sativa); conditions: Table 5
Procedure: as §1, §2
Only variable positions are shown. Naturally occurring differences in the rice sequence from the maize sequence are shown. The mutations designed to create rice orthologs of selected maize variants are shown. Genes designed to encode the rice orthologs were synthesized by a commercial provider and expressed and purified as described above.
Fitness is indicated by the parameter kcat gly, defined in Example 1.

B1: Gm F3: soybean EPSPS variant from combinatorial library, SEQ ID NO: 13 (protein)
chain: MAAAEKPSTSPEIVLEPIKDFSGTITLPGSKSLSNRILLLAALSEGTTVVDNLLYSEDIHYMLGALRTLGLRVEDDKTTKQAIVEGCGGLFPTSKESKDEINLFCGNAATAMRPLTAAVVAAGGNASYVLDGVPRMRERPIGDLVAGLKQLGADVDCFLGTNCPPVRVNGKGGLPGGKVKLSGSVSSQYLTALLMAAPLALGDVEIEIVDKLISVPYVEMTLKLMERFGVSVEHSGNWDRFLVHGGQKYKSPGNAFVEGDASSASYLLAGAAITGGTITVNGCGTSSLQGDVKFAEVLEKMGAKVTWSENSVTVSGPPRDFSGRKVLRGIDVNMNKMPDVAMTLAVVALFANGPTAIRDVASWRVKESERMIAICTELRKLGATVEEGPDYCVITPPEKLNVTAIDTYGDHRMAMAFSLAACGDVPVTIKDPGCTRKTFPDYFEVLERLTKH
modifications: Glycine max
B1 showed a kcat gly [1] of 0.938 s⁻¹.

B2: Gm F3-02-A7: soybean EPSPS variant, SEQ ID NO: 15 (protein)
chain: B1 chain with V340A
modifications: Glycine max
B2 gave a kcat gly [1] of 1.34 s⁻¹.

B3: Gm F3-V340A: soybean EPSPS variant Gm F3 with V340A, SEQ ID NO: 14 (protein)
chain: B1 chain with V340A
modifications: Glycine max
B3 was tested, and the “fitness (kcat gly) compared with Gm F3” value [1] was “significant fitness improvement”.

B4: Zm F3-88: maize EPSPS variant, SEQ ID NO: 12 (protein)
chain: MAGAEEIVLQPIKEISGTVKLPGSKSLSNRILLLAALSEGTTVVDNLLNSEDVGYMLGALRTLGLSVEADKAAKRAVVVGCGGKFPVEDAKEEVQLFCGNAATAMRPLTAAVTAAGGNATYVLDGVPRMRERPIGDLVVGLKQLGADVDCFLGTDCPPVRVNGIGGLPGGKVKLSGSISSQYLSALLMAAPLALGDVEIEIIDKLISIPYVEMTLVLMERFGVKAYHSDSWDRFYIKGGQKYKSPKNAYVEGDASSASYFLAGAAITGGTVTVEGCGTTSLQGDVKFAEVLEMMGAAVTWTETSVTVTGPPREPFGRKHLKAIDVNMNKMPDAAMTLAVVALFADGPTAIRDVASWRVKESERMVAIRTELTKLGASVEEGPDYCIITPPEKLNVTAIDTYGDHRMAMAFSLAACAEVPVTIRDPGCTAKTFPDYFDVLSTFVKN
modifications: Zea mays
In the case of B4, the kcat ([2]; Table 2) is reported as 11.6 s⁻¹, the “kcat/KM*KI” value ([2]; Table 2) is reported as 29600 and the Km ([2]; Table 2, KM for PEP, read-out: KM) is reported as 55.6 µM. The KI/KM ([2]; Table 2, discrimination between glyphosate and PEP) was 44.0, the Ki ([2]; Table 2, inhibitor glyphosate) was 2440 µM and the kcat gly ([3]; Table 2, 30 μM PEP and S3P, 1 mM glyphosate, pH 7.0) was 85.7 min⁻¹. It also gave a kcat gly ([3]; Table 5, maize variants) of 98 min⁻¹ and a Zm/Os ([3]; Table 5, ratio of kcat gly, maize variant to rice ortholog) of 1.57.

B5: Os D2-67: rice EPSPS ortholog of Zm D2-67, SEQ ID NO: 17 (protein, listed as Oryza sativa)
chain: MRKWEEIVLQPIREISGAVQLPGSKSLSNRILLLSALSEGTTVVDNLLNSEDVHYMLEALKALGLSVEHDKVAKRAVVVGCGGRFPVEKDAKGEVQLFCGNAATAMRPLTAAVTAAGGNATYVLDGVPRMRERPIGDLVVGLKQLGADVDCFLGTECPPVRVKGIGGLPGGKVKLSGSISSQYLSALLMAAPLALGDVEIEIIDKLISLPYVEMTLRLMERFGVKAEHSDSWDRFYIKGGQKYESPGNAYVEGDASSASYFLAGAAITGGTVTVQGCGTTSLQGDVKFAEVLEMMGAKVTWTDTSVTVTGPPREPYGKKHLKAVDVNMNKMPDAAMTLAVVALFADGPTAIRDVASWRVKETERMVAIRTELTKLGASVEEGPDYCIITPPPKLNITAIDTYGDHRMAMAFSLAACADVPVTIRDPGCTRKTFPNYFDVLSTFVRN
In the case of B5, the kcat gly [4] is reported as 1.7 s⁻¹.

B6: Os F3: rice EPSPS ortholog of Zm F3, SEQ ID NO: 18 (protein, listed as Oryza sativa)
chain: B5 chain with R2A, W4A, H69A, R84K, G93E, L209I, E244K, A334V, T362S, P392E
B6 gave a kcat gly [4] of 0.65 s⁻¹.

B7: Os F3-88: rice EPSPS ortholog of Zm F3-88, SEQ ID NO: 19 (protein, listed as Oryza sativa)
chain: MAKAEEIVLQPIREISGAVQLPGSKSLSNRILLLSALSEGTTVVDNLLNSEDVGYMLEALKALGLSVEADKVAKRAVVVGCGGKFPVEKDAKEEVQLFCGNAATAMRPLTAAVTAAGGNATYVLDGVPRMRERPIGDLVVGLKQLGADVDCFLGTECPPVRVKGIGGLPGGKVKLSGSISSQYLSALLMAAPLALGDVEIEIIDKLISIPYVEMTLVLMERFGVKAYHSDSWDRFYIKGGQKYKSPGNAYVEGDASSASYFLAGAAITGGTVTVQGCGTTSLQGDVKFAEVLEMMGAAVTWTDTSVTVTGPPREPYGKKHLKAVDVNMNKMPDAAMTLAVVALFADGPTAIRDVASWRVKESERMVAIRTELTKLGASVEEGPDYCIITPPEKLNITAIDTYGDHRMAMAFSLAACADVPVTIRDPGCTAKTFPNYFDVLSTFVRN
With B7 the kcat gly [4] was 1.04 s⁻¹.

B8: Os D2: rice EPSPS ortholog of Zm D2, SEQ ID NO: 16 (protein, listed as Oryza sativa)
chain: B5 chain
Molecule B8 has a kcat gly [4] of 1.48 s⁻¹.

B9: Zm D2c-A5: maize EPSPS variant with 21 mutations, SEQ ID NO: 59 (protein)
chain: MSKWEEIVLQPIKEISGTVKLPGSKSLSNRILLLAALSEGTTVVDNLLNSEDVGYMLGALRTLGLSVEHDEAAKRAVVVGCGGRFPVEDAKGEVQLFCGNAATAMRPLTAAVTAAGGNATYVLDGVPRMRERPIGDLVVGLKQLGADVDCFLGTDCPPVRVRGIGGLPGGKVKLSGSISSQYLSALLMAAPLALGDVEIEIIDKLISLPYVEMTLRLMERFGVRAEHSDSWDRFYIKGGQKYESPKNAYVEGDASSASYFLAGAAITGGTVTVEGCGTTSLQGDVKFAEVLELMGAKVTWTPTSVTVTGPPREPFGRKHLKAIDVNMNKMPDAAMTLAVVALFADGPTAIRDVGSWRVKETERMVAIRTELTKLGASVEEGPDYCIITPPPKLNVTAIDTYGDHRMAMAFSLAACGEVPVTIRDPGCTRKTFPDYFDVLSTFVKN
modifications: Zea mays
B9 was tested, and the Ki ([2]; Ki for glyphosate) was 839 ± 40 µM, the Km ([2]; apparent Km, PEP present at 10 times its Km, read-out: Km S3P) was 12.6 ± 1.4 µM and the Km ([2]; apparent Km, S3P present at 10 times its Km, read-out: Km PEP) was 18.1 ± 0.6 µM. The “kcat/Km*Ki” value ([2]; calculated with Km for PEP) was 34350, the kcat ([2]; maize EPSPS variants) was 12.4 ± 0.1 s⁻¹ and the kcat gly ([3]; D2c variants with substitutions relative to D2-124, no unit in table (kcat gly given in min^−1)) was 156. For the same molecule, the kgly ([3]; enzyme turnover at 30 μM PEP and S3P, 1 mM glyphosate) was 186 ± 4.7 min⁻¹.
